B1: ZNF232 (parent)
chain: GKAYGWCSELIRHRRVHARKEPSH
B2: TRIM9 (parent)
chain: PRNSCITCPQCHRSLILDDRGLRG

Variants of: B1
Experiment: protein stability index of a GFP-peptide fusion (GPS, HEK-293T) (PSI 1-6); higher = more stable
Conditions: c terminus: a fixed tail appended
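Also: lentivirally expressed fusions sorted by FACS into six bins by GFP to DsRed ratio, PSI derived from sequencing read proportions per bin multiplied by bin number.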

Compared with QKAYGWCSELIRHRRVHARKEPSH [G1Q], WKAYGWCSELIRHRRVHARKEPSH [G1W] is lower in protein stability index: 3.28 for the first, 1.97 for the second.

Going from EKAYGWCSELIRHRRVHARKEPSH [G1E] to YKAYGWCSELIRHRRVHARKEPSH [G1Y], the protein stability index falls from 3.39 to 2.37.

Going from KKAYGWCSELIRHRRVHARKEPSH [G1K] to MKAYGWCSELIRHRRVHARKEPSH [G1M], the protein stability index falls from 2.75 to 2.55.

Compared with CKAYGWCSELIRHRRVHARKEPSH [G1C], VKAYGWCSELIRHRRVHARKEPSH [G1V] is lower in protein stability index: 2.73 for the first, 2.45 for the second.

Compared with DKAYGWCSELIRHRRVHARKEPSH [G1D], TKAYGWCSELIRHRRVHARKEPSH [G1T] is lower in protein stability index: 3.43 for the first, 3.35 for the second.

First: RKAYGWCSELIRHRRVHARKEPSH [G1R]
Second: SKAYGWCSELIRHRRVHARKEPSH [G1S]
The protein stability index of the first is lower: 2.87 for the first, 3.08 for the second.

Compared with FKAYGWCSELIRHRRVHARKEPSH [G1F], NKAYGWCSELIRHRRVHARKEPSH [G1N] is higher in protein stability index: 2.79 for the first, 3.14 for the second.

Going from LKAYGWCSELIRHRRVHARKEPSH [G1L] to HKAYGWCSELIRHRRVHARKEPSH [G1H], the protein stability index falls from 2.85 to 2.75.

Going from AKAYGWCSELIRHRRVHARKEPSH [G1A] to IKAYGWCSELIRHRRVHARKEPSH [G1I], the protein stability index falls from 2.89 to 2.72.

Compared with PKAYGWCSELIRHRRVHARKEPSH [G1P], GRAYGWCSELIRHRRVHARKEPSH [K2R] is lower in protein stability index: 3.44 for the first, 2.79 for the second.

First: GTAYGWCSELIRHRRVHARKEPSH [K2T]
Second: GPAYGWCSELIRHRRVHARKEPSH [K2P]
The protein stability index of the first is lower: 3.12 for the first, 3.44 for the second.

First: GLAYGWCSELIRHRRVHARKEPSH [K2L]
Second: GNAYGWCSELIRHRRVHARKEPSH [K2N]
The protein stability index of the first is lower: 2.61 for the first, 2.62 for the second.

First: GCAYGWCSELIRHRRVHARKEPSH [K2C]
Second: GAAYGWCSELIRHRRVHARKEPSH [K2A]
The protein stability index of the first is lower: 2.41 for the first, 3.3 for the second.

Going from GIAYGWCSELIRHRRVHARKEPSH [K2I] to GHAYGWCSELIRHRRVHARKEPSH [K2H], the protein stability index rises from 2.72 to 3.01.

Compared with GQAYGWCSELIRHRRVHARKEPSH [K2Q], GSAYGWCSELIRHRRVHARKEPSH [K2S] is lower in protein stability index: 3.26 for the first, 2.84 for the second.

Going from GGAYGWCSELIRHRRVHARKEPSH [K2G] to GFAYGWCSELIRHRRVHARKEPSH [K2F], the protein stability index falls from 3.54 to 2.62.

Going from GEAYGWCSELIRHRRVHARKEPSH [K2E] to GDAYGWCSELIRHRRVHARKEPSH [K2D], the protein stability index rises from 2.82 to 3.2.

Work on GMAYGWCSELIRHRRVHARKEPSH [K2M] yielded a protein stability index of 2.55.

Variants of: B2
Experiment: as above
Conditions: c terminus: a fixed tail appended

First: PRNSCITCPQCHRSLTLDDRGLRG [I16T]
Second: PRNSCITCPQCHRSLVLDDRGLRG [I16V]
The protein stability index of the first is lower: 1.99 for the first, 2.28 for the second.

First: PRNSCITCPQCHRSLRLDDRGLRG [I16R]
Second: PRNSCITCPQCHRSLSLDDRGLRG [I16S]
The protein stability index of the first is lower: 2.13 for the first, 2.97 for the second.

First: PRNSCITCPQCHRSLYLDDRGLRG [I16Y]
Second: PRNSCITCPQCHRSLILDCRGLRG [D19C]
The protein stability index of the first is lower: 2.58 for the first, 2.6 for the second.

Compared with PRNSCITCPQCHRSLILDERGLRG [D19E], PRNSCITCPQCHRSLILDPRGLRG [D19P] is lower in protein stability index: 1.82 for the first, 1.81 for the second.

Compared with PRNSCITCPQCHRSLILDTRGLRG [D19T], PRNSCITCPQCHRSLILDRRGLRG [D19R] is lower in protein stability index: 2.42 for the first, 1.84 for the second.

Going from PRNSCITCPQCHRSLILDLRGLRG [D19L] to PRNSCITCPQCHRSLILDIRGLRG [D19I], the protein stability index rises from 1.41 to 1.75.

First: PRNSCITCPQCHRSLILDWRGLRG [D19W]
Second: PRNSCITCPQCHRSLILDARGLRG [D19A]
The protein stability index of the first is lower: 1.52 for the first, 2.46 for the second.

First: PRNSCITCPQCHRSLILDNRGLRG [D19N]
Second: PRNSCITCPQCHRSLILDYRGLRG [D19Y]
The protein stability index of the first is higher: 1.93 for the first, 1.7 for the second.

Compared with PRNSCITCPQCHRSLILDVRGLRG [D19V], PRNSCITCPQCHRSLILDMRGLRG [D19M] is higher in protein stability index: 1.4 for the first, 2.24 for the second.

Going from PRNSCITCPQCHRSLILDHRGLRG [D19H] to PRNSCITCPQCHRSLILDSRGLRG [D19S], the protein stability index rises from 1.9 to 2.11.

Going from PRNSCITCPQCHRSLILDFRGLRG [D19F] to PRNSCITCPQCHRSLILDQRGLRG [D19Q], the protein stability index rises from 1.72 to 2.77.

Going from PRNSCITCPQCHRSLILDKRGLRG [D19K] to PRNSCITCPQCHRSLILDGRGLRG [D19G], the protein stability index falls from 2.05 to 1.58.

First: PRNSCITCPQCHRSLILKDRGLRG [D18K]
Second: PRNSCITCPQCHRSLILEDRGLRG [D18E]
The protein stability index of the first is higher: 2.24 for the first, 1.71 for the second.

Compared with PRNSCITCPQCHRSLILLDRGLRG [D18L], PRNSCITCPQCHRSLILTDRGLRG [D18T] is higher in protein stability index: 1.53 for the first, 2.24 for the second.

Going from PRNSCITCPQCHRSLILGDRGLRG [D18G] to PRNSCITCPQCHRSLILADRGLRG [D18A], the protein stability index falls from 2.36 to 2.31.

Going from PRNSCITCPQCHRSLILFDRGLRG [D18F] to PRNSCITCPQCHRSLILQDRGLRG [D18Q], the protein stability index rises from 1.92 to 1.96.

Compared with PRNSCITCPQCHRSLILCDRGLRG [D18C], PRNSCITCPQCHRSLILIDRGLRG [D18I] is lower in protein stability index: 2.05 for the first, 1.53 for the second.

Compared with PRNSCITCPQCHRSLILMDRGLRG [D18M], PRNSCITCPQCHRSLILVDRGLRG [D18V] is lower in protein stability index: 2.57 for the first, 1.85 for the second.

First: PRNSCITCPQCHRSLILSDRGLRG [D18S]
Second: PRNSCITCPQCHRSLILNDRGLRG [D18N]
The protein stability index of the first is higher: 2.3 for the first, 1.7 for the second.

Going from PRNSCITCPQCHRSLILHDRGLRG [D18H] to PRNSCITCPQCHRSLILYDRGLRG [D18Y], the protein stability index rises from 2.03 to 2.36.

Going from PRNSCITCPQCHRSLILPDRGLRG [D18P] to PRNSCITCPQCHRSLILWDRGLRG [D18W], the protein stability index rises from 1.49 to 1.68.

Going from PRNSCITCPQCHRSLILDDCGLRG [R20C] to PRNSCITCPQCHRSLILDDIGLRG [R20I], the protein stability index falls from 2.39 to 1.85.

Going from PRNSCITCPQCHRSLILDDAGLRG [R20A] to PRNSCITCPQCHRSLILDDWGLRG [R20W], the protein stability index falls from 1.98 to 1.44.

First: PRNSCITCPQCHRSLILDDEGLRG [R20E]
Second: PRNSCITCPQCHRSLILDDMGLRG [R20M]
The protein stability index of the first is higher: 2.7 for the first, 2.21 for the second.

First: PRNSCITCPQCHRSLILDDPGLRG [R20P]
Second: PRNSCITCPQCHRSLILDDLGLRG [R20L]
The protein stability index of the first is higher: 2.6 for the first, 1.93 for the second.

Going from PRNSCITCPQCHRSLILDDGGLRG [R20G] to PRNSCITCPQCHRSLILDDQGLRG [R20Q], the protein stability index falls from 2.19 to 2.04.

First: PRNSCITCPQCHRSLILDDTGLRG [R20T]
Second: PRNSCITCPQCHRSLILDDFGLRG [R20F]
The protein stability index of the first is higher: 3.07 for the first, 1.69 for the second.

First: PRNSCITCPQCHRSLILDDKGLRG [R20K]
Second: PRNSCITCPQCHRSLILDDHGLRG [R20H]
The protein stability index of the first is higher: 1.98 for the first, 1.62 for the second.

Going from PRNSCITCPQCHRSLILDDDGLRG [R20D] to PRNSCITCPQCHRSLILDDNGLRG [R20N], the protein stability index falls from 2.53 to 2.05.

PRNSCITCPQCHRSLILDDVGLRG [R20V] showed a protein stability index of 1.82.

From the supplement of paper PMC10567573
